From the DeepSol protein solubility set

Assay: soluble on expression in E. coli; label from the status in PepcDB or PDB records

Row | Sequence | soluble on expression in E. coli
1 | MLCTVTEKLYYDDMYMKEFQAEVVSVDSNGIVLDRTAFYPTGGGQPNDTGIIVNDDKTYRVVDVQKHGDDVVHILESVDGLKAGDRIYGKIDWERRYAHMRYHTAIHILDGIVSAKHNSEALLTGGQIYEDRSRIDMNIENFTKEFVDQIIQEANEFISEGHRVYAENISREEAMKRPNLARTEPGRKLIESLPVVRIIVIEGLDEQSDGGTHVANTREVGKIVLRKIENKGRKNKRIEFELSPA | not soluble
2 | MLDDIPITIQKSKKIKTLSLNITPSLEVILKMPNSCSQTRASAFLKEQEAWLKKTFLSMQEKHSLLRTNLEKYQNKILVFDEVKNANDYTLTELKKILKTYLEQKLPLIAQKMQTSYTHFSIRNNAKVLGSCSYHNRLSFALLLVCAQKEAIDYVIIHELAHTIHKNHSKNFWRCVQIFCPNYRALRERLKQNTIFYAQLLKTLQPLEHHHHHH | soluble
3 | MLDDVRLLANGLLQLGQSLREFVHKTKSQTNDIFQKLNIFDRSFYQLSVVTSEIKEEEEKLKGLSQPITVSIHQPEQRAKHTKEA | not soluble
4 | MLDKIRFTVLLDRPFYQPGQTIQGHVVCEPHHPLEIDCVEGRLHGEIQYFQQLPPNHNRNGSPLPPSKTRVLIDEKAQLWKYQTVSEMLGLDVFYDENQNRHFSSESASASSSSLFTTAATFPIQIELPHFAPPSFYCPGSPVSIRFTLEIQLYNQGFKIASHEENLVVLNYESIKRQVTPKPVNFQKTFNFPKERSISLEMLLPTDVFTTTARLENCITICNRWKQSLKYVHLNIVRRISALNQNNEVIDTVKIDTTGVGLPSKTKIAVGETYSFRPTFNVPALPPNIHVNGLFKTEYSLKVTIGRAHNFVLASYEVPITIVTMDQSSRRSMQKEDILVDISASNNTLNNLPVDLLA | not soluble
5 | MLDPARSYDLIGDVHGCALTLEHLLDRLGYHKQAGVWRHPSRMAVFLGDIIDRGPRIRESLHIVHDMVEAGQALCIMGNHEFNALGWSTPAAEGSGKQFVREHTPRHARLIHETLTQFEQHPGDWHDFLQWFYELPLFVDAGRFRVVHACWDAGLIAPLRQQYPNGCIDREFLQSAAVPDSFACTAFDRLLRGTDMRLPHGLTMTSGDGLTRAFFRTKFWEDDPQTYGDIVFQPDALPEPVARTPLSPAEKNSLLRYGAEEPMLFVGHYWRSGKPAPIRPNLACLDYSAVLYGKLAAYRLDQETRLDPNKFVWVDVERPEVVRLEHHHHHH | not soluble
6 | MLDPGPNPAPRPSRDRAPHAVVIGSGFGGLAAAVRLGAKGYRVTVLEKLDKAGGRAYVHKQDGFSFDAGPTIVTAPYLFEELWKLCGKRMSDDITLKPMSPFYRIRFDDGTHFDYSDDRDAVLDQIAKFCPDDVPAYDRFMAASHEIFKVGFEQLGDQPFSHFTDMLKIAPAMIKLESYRSVYGLVAKHFKDPKLRQVFSFHPLLIGGNPFMSSSVYCLITYLEKQWGVHSAMGGTGALVTGLVNLIEGQGNTIRYNQDVRQIVVENGTACGVKLADGEVIKADIVVSNADSASTYRYLLPPETRKRWTDAKIEKSRYSMSLFVWYFGTKRRYEDVKHHTILLGPRYKELISDIFSRKVVAEDFSLYLHRPTATDPSLAPQGCDTFYVLSPVPNLLGDTDWHTKAETYRASIAKMLGATVLPDLENQIATSKITTPIDFQDRLSSFRGAAFGLEPVLWQSAWFRPHNQSEDVKRLYLVGAGTHPGAGLPGVLSSARVLDALVPEADSLVTSLEHHHHHH | not soluble
7 | MLDYVPWIGNGYRYGNNHRGSNSSTSGVTTQGQSQNASSNEPAPTFSNVGVGLKANVNGTLSGSRTTPNQQGTPWLTLDQANLQLWTGAGWRNDKNGQSDENYTNFASAKGSTNQQGSTTGGSAGNPDSLKQDKADKSGDSVTVAEATSGDNLTNYTNLPPTSPPHPTDRTRCHSPTRTTPSGCSCSCAACWAASRCWSIRVGKMITVSLIPPTKNGLTPNLEHHHHHH | not soluble
8 | MLEAPLLSICIPAYNRPNWLQRGLESIAVGEGSDIEIVITDDSDTDQGQAIASEVLKNWSGSWCYEHHQQPLGMAQNWNRAIQWATGQYVMVLHDDDFFLPQGLGLLVNKLRQLGSSSPVLLFGVRVVDAQERVVKRQGFRQDKLLPPHDALIRLFSDSSFVRFPAMVIRRDLFTEVGYFNPDWREPCDLEMWMRLFARYGVYCCREATVAYRVHGQALTMGSFHGETVNILLRLFGELEKLNILTTRDIEFCKGLFFHQYILAGAWRQLRRRRWREFKQVMGLFDLPELKSLSCPVKWRFLRGLFSLTLEHHHHHH | not soluble
